Laboratory results as given in US20160030544A1 (ISIS INNOVATION, published 2016).

T1: fH6-7 (factor H CCP domains 6-7) (UniProt P08603 321-443)
T1 construct: domain: fH6-7; Analyte in SPR, 0.5 nM-32 nM
T1 sequence: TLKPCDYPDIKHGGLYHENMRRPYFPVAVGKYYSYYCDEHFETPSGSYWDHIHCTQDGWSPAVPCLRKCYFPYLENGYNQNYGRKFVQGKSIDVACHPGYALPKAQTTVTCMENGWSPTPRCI


Tests used:
[1] = molecular target: T1, fH6-7 (factor H CCP domains 6-7); assay: SPR, Biacore 3000, protein on CM5 chip, fH6-7 as analyte
[2] = molecular target: T1, fH6-7 (factor H CCP domains 6-7); assay: SPR, Biacore 3000, protein on CM5 chip
[3] = molecular target: T2, factor H (fH), full length (human, UniProt P08603 19-1231); assay: ELISA, coated protein, purified full length fH
T2 construct: mature; Far western used normal human serum diluted 1:100 as the source of fH; also called full length fH; purified full length fH
T2 sequence (P08603 19-1231): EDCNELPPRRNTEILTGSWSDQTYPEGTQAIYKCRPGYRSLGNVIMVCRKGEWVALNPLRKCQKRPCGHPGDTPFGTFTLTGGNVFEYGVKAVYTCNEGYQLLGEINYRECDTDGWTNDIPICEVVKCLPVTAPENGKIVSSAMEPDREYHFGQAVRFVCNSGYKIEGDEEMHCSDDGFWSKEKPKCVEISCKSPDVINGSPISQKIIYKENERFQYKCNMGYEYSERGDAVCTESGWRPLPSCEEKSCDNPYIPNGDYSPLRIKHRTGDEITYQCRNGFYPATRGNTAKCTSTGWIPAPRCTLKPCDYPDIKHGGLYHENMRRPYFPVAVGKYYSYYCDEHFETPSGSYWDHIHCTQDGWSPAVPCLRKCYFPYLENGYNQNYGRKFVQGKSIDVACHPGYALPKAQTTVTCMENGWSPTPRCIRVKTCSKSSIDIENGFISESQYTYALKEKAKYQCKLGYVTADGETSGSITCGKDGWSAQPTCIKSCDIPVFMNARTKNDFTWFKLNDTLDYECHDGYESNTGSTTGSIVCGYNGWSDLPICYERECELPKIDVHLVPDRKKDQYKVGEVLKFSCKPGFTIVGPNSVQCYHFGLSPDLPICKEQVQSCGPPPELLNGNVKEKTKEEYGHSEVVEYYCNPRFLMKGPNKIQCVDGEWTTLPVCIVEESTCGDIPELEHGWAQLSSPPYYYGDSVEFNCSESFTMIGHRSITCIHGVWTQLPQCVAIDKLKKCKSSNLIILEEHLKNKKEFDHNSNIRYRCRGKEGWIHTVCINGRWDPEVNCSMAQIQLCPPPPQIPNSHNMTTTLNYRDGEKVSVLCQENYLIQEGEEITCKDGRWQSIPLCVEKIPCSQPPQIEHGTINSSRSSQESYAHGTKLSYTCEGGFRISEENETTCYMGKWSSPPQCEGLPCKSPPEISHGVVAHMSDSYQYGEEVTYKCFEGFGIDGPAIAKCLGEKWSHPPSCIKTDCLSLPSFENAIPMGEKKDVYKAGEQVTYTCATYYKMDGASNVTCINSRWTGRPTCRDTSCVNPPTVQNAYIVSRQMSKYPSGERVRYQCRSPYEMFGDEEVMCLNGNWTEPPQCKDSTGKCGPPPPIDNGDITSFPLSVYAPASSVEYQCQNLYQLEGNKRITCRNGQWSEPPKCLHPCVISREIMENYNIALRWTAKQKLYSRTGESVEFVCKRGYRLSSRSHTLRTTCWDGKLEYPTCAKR

Binder | Kd [1] [nM] | binding result [2] | binding result [3]
Ghfp^M4 (R288H) (other, Text prints R288H (numbering according to fHbp V1.1 structure)) DKGLKSLTLEASIPQNGTLTLSAQGAEKTFKAGGKDNSLNTGKLKNDKISRFDFVQKIEVDGQTITLASGEFQIYKQDHSAVVALRIEKINNPDKIDSLINQRSFLVSDLGGEHTAFNQLPDGKAEYHGKAFSSDDADGKLTYTIDFAAKQGHGKIEHLKTPEQNVELASAELKADEKSHAVILGDTRYGGEEKGTYHLALFGDRAQEIAGSATVKIGEKVHEIGIADKQ | 16 | – | –
Ghfp^M5 (D318G) (other, Text prints D318G (fHbp V1.1 structure numbering)) DKGLKSLTLEASIPQNGTLTLSAQGAEKTFKAGGKDNSLNTGKLKNDKISRFDFVQKIEVDGQTITLASGEFQIYKQDHSAVVALRIEKINNPDKIDSLINQRSFLVSDLGGEHTAFNQLPDGKAEYHGKAFSSDDADGKLTYTIDFAAKQGHGKIEHLKTPEQNVELASAELKADEKSHAVILGDTRYGGEEKGTYRLALFGDRAQEIAGSATVKIGEKVHEIGIAGKQ | – | no binding (tested: fH6-7 0.5 nM-32 nM) | no binding
Ghfp^M4-5 (R288H/D318G) (other, Text prints R288H/D318G (fHbp V1.1 structure numbering)) DKGLKSLTLEASIPQNGTLTLSAQGAEKTFKAGGKDNSLNTGKLKNDKISRFDFVQKIEVDGQTITLASGEFQIYKQDHSAVVALRIEKINNPDKIDSLINQRSFLVSDLGGEHTAFNQLPDGKAEYHGKAFSSDDADGKLTYTIDFAAKQGHGKIEHLKTPEQNVELASAELKADEKSHAVILGDTRYGGEEKGTYHLALFGDRAQEIAGSATVKIGEKVHEIGIAGKQ | 2 | – | –
